Data from patent US12077763B2, “RNA-based control of powdery mildew” (Greenlight Biosciences, Inc., priority 2021, dated 2024).

Tested on: E. necator
Assay: Leaf disc assay, dry inoculum (settling tower), decrease in disease severity / hyphal growth (Example 2)
Settings: decrease in disease severity (hyphal growth) relative to untreated control, value ± SE; for % decrease =/− SE TP1: time point 1 (untreated control hyphal growth ≥50%); for % decrease =/− SE TP2: time point 2

| Molecule | % decrease =/− SE TP1 [%] | % decrease =/− SE TP2 [%] |
| --- | --- | --- |
| GS3467 (nucleic acid) sense: CCCAGCUUCAUUAGAGUGGUCAAAGAAACCAUUGUAGGUGUGAAUAGGAGGCUGAACUAGAGAUAAGAUGGUAUUAUGCAGAAUAUGACAAGUAGGAUUGCAUUGCUUAUCUUUAAUAAUCUCUCUCUUAAUUGUUAUCUUAGAAGCAAAGUUAGUUUCAUCAUCGCUUAAUUUUAAAUUAAUAAGUGAAACUUUGCUUCCAUAAGGUGAGCUACAAGGUGAUGGCUGAAUUAAAUCUUCAACUUUUUUAUUAUCAGUCCUUAUUUCUAGGUCAUAUGACCUAGAAUCUUCUAUAAAUUUUCUAAGCUUAUUUGAAGAAUCCUUAGUAGGUGUUUUUGCAAUGAAACGAUUAUUUUCUUCAGGUAAGAUUGUAGCGACGCUAACCGAUGACUCAGU antisense: ACUGAGUCAUCGGUUAGCGUCGCUACAAUCUUACCUGAAGAAAAUAAUCGUUUCAUUGCAAAAACACCUACUAAGGAUUCUUCAAAUAAGCUUAGAAAAUUUAUAGAAGAUUCUAGGUCAUAUGACCUAGAAAUAAGGACUGAUAAUAAAAAAGUUGAAGAUUUAAUUCAGCCAUCACCUUGUAGCUCACCUUAUGGAAGCAAAGUUUCACUUAUUAAUUUAAAAUUAAGCGAUGAUGAAACUAACUUUGCUUCUAAGAUAACAAUUAAGAGAGAGAUUAUUAAAGAUAAGCAAUGCAAUCCUACUUGUCAUAUUCUGCAUAAUACCAUCUUAUCUCUAGUUCAGCCUCCUAUUCACACCUACAAUGGUUUCUUUGACCACUCUAAUGAAGCUGGG | 25 ± 4 | 13 ± 7 |
| GS3477 (nucleic acid) sense: CCUCUCGCCAUUAAAUACUCAUAAAAUAUCCGCACGUACAGUUCUCUUCACUUCGGUACCUGCUAAAUACAGAGAUGAAUCUAAAUUACGUCAGAUAUUUGGCUCAUGCGUGAAAAAGGUUUGGAUAACAAAAGACAGUUCAGAGGUUGACGACCUUGUAUCUGAGCGCGACGAUCUCCUACUAAGAUUAGAAUCAUCUGAAGUUAAGCUUAUUAAAAUUGCAAAUACAGAGAGACUCAAGAUUAACAAGAAAAAAGCUGGAGAUAAUAACUCAUCAUCUGAAGUCGCAGCUCCUGUCCCAGCAUCUCUAGUUGACUACUGGGUUCCAGAAAAUAAGCGUCCGACUCAUAAGCUUGGCUUAUUUGGGCUAGUUGGACAGAAAGUUGAUACGAUUAAAU antisense: AUUUAAUCGUAUCAACUUUCUGUCCAACUAGCCCAAAUAAGCCAAGCUUAUGAGUCGGACGCUUAUUUUCUGGAACCCAGUAGUCAACUAGAGAUGCUGGGACAGGAGCUGCGACUUCAGAUGAUGAGUUAUUAUCUCCAGCUUUUUUCUUGUUAAUCUUGAGUCUCUCUGUAUUUGCAAUUUUAAUAAGCUUAACUUCAGAUGAUUCUAAUCUUAGUAGGAGAUCGUCGCGCUCAGAUACAAGGUCGUCAACCUCUGAACUGUCUUUUGUUAUCCAAACCUUUUUCACGCAUGAGCCAAAUAUCUGACGUAAUUUAGAUUCAUCUCUGUAUUUAGCAGGUACCGAAGUGAAGAGAACUGUACGUGCGGAUAUUUUAUGAGUAUUUAAUGGCGAGAGG | 28 ± 4 | 7 ± 8 |
| GS3474 (nucleic acid) sense: UAAGCAAUUUGAUGAUGAUCAUUAUGGUCUGGAGAAAGUCAAGAAAAGACUCCUUGAAUAUUUAGCGGUUCUCAAACUAAAGCAAUCAAUAAAUCAAGACAUUGACAUCAAGAUUAAGAAGGCAUCUGAAGAAAGAGCACAUGAAAAACUAGAAAUCUUAAAAAGUCAGAGAAUGGUUGAUAAAUCGCCUAUCUUGCUACUCGUUGGUCCUCCAGGUGUAGGUAAAACAAGCCUCGCAAAAUCUGUUGCAACAGCACUUGGUCGUAAAUUUCAUCGAAUUUCUCUUGGUGGUGUUCGGGAUGAGGCUGAAAUUAGGGGACAUCGUCGUACUUACGUUGCAGCUAUGCCAGGCCUCAUAAUUCAAGGGCUUAAGAAAGUUGGAGUGUGCAAUCCCGUUUUUCUUUUAGAUGAAAUUGAUAAAAUUGGGAGUUCUAAUUUCCAAGGUGAUCCUAGCGCUGCAAUGCUCGAAGUCCUCGAUCCAGAGCAGAAUCACAGUUUUACAGACCACUACGUCAAUAUUCCAGUAGACCUUAGCAAAGUUCUGUUUAUCGCUACUGCAAAUAGUCUGGAUACUAUUUCACCACCACUCUUAGACAGA antisense: AAUGACAUGGAUUAUGUUGAACAUCAUUUUGGUCCUGCAGGCUUAAAUCGACAGGACAUUGUCCAUACAUACAGAACUCUUAAUGCAAAGAUUAUUAAAGCUGACCUCCUUCGUUAUUUGAUUAUGUAUGUGGAAGGAGGUCUAUACGCUGACAUUGAUGUCGAAGCUUUACGUCCAAUUGAACGUUUUAUUCCAGAGCGAUGGAACGAGAAAGACAUUGAUAUGAUUGUAGGGGUCGAGAUUGAUAUGCCGCAUUAUUCCGAUCACCCUAUUCUUGGUCCUAAAUCUAAAUCAUUUUGCCAAUGGACAUUUAUGUGCAAGCCACGUCUACCGGUGAUGAUGCAAUUAAUUGAUAAUAUUAUCGUCUGGCUCAAUCAGCUUUCCCGA | 17 ± 5 | 9 ± 8 |
| GS1806: dsRNA trigger SEQ ID NO 181; gene target Serine/threonine-protein kinase SCH9 (nucleic acid) DNA: GACCAACCACAGCACATTTCAAAGACAAGTACGCCTAATGACCAAAAGTCAACCATCTTAGTATATCCTGTTTCATCTAGGAGAACCTCAGGAGCAAGGTATTCCGTGGTACCACAGAATGTATTTGTCGTCTCATTTTTGGTCAAGTTAGCTTTTGAAAGACCAAAATCACATAAAGCGATATGTCCATTAGCATCGAGCAGAATGTTTTCAGGTTTTAGATCGCGATAAACGATGTCATGTTTGTGAAGGTGCTGGAGAGCCAAAATGAGCTCAGCTATGTAAAATTTTGCTCGCTCTTCACAGAACCTTCCTTCTCTTTGTAAATGCCAAAAAAGTTCGCCTCCAGACATATAATCAGTTACCAAATAGAGATCACTTGGAGTTTGGAATGAAAATTTAAGTCCAACAATGAACTGCGACTCTGCCATAGCTGTTCTGACTAAGATATTTCTTTCGCCAACAGTATGGGCGACCTCTTTCTTTTGTACAATAACCTTTTTCTGAAGGACTTTCATGGCATAAATTCTTCCTGTATCTTTTTTCCTGACTTGATAAACTTGACCAAAAGTTCCTTTTCCTATCAGTTTCAAGAATT | 34 ± 7 | 21 ± 7 |
| GS3457 (nucleic acid) sense: UCAGGCAAGGGUGGAGUGGGUAAAAGUACAUUUACAACACUGCUUGCACAUGCACUUGCAAAAGACCCGGAAAUUGUGGUUGGUGUCAUGGAUACAGAUAUUUGCGGGCCAAGUAUUCCAAAAAUGAUGGGAGUUGAGGAAGAGAUUAUUCACGUCAGUAAUACAGGAUGGAGUCCAGUUUGGGUACUUGAAAAUCUAGCAGUAAUGAGCGUGCAAUUUAUGCUUCCCAACCGAGAUGAUGCAGUUAUUUGGAGAGGACCAAAGAAAAACGGCCUGAUAAAGCAAUUUUUAAAAGAUGUAGAAUGGGGCGAAAUGGAAUAUUUAUUAGUAGACACUCCACCAGGAACAAGUGAUGAACAUUUGAGUGUCAACACUUUUUUGAAAGAGAGUGGAA antisense: UUCCACUCUCUUUCAAAAAAGUGUUGACACUCAAAUGUUCAUCACUUGUUCCUGGUGGAGUGUCUACUAAUAAAUAUUCCAUUUCGCCCCAUUCUACAUCUUUUAAAAAUUGCUUUAUCAGGCCGUUUUUCUUUGGUCCUCUCCAAAUAACUGCAUCAUCUCGGUUGGGAAGCAUAAAUUGCACGCUCAUUACUGCUAGAUUUUCAAGUACCCAAACUGGACUCCAUCCUGUAUUACUGACGUGAAUAAUCUCUUCCUCAACUCCCAUCAUUUUUGGAAUACUUGGCCCGCAAAUAUCUGUAUCCAUGACACCAACCACAAUUUCCGGGUCUUUUGCAAGUGCAUGUGCAAGCAGUGUUGUAAAUGUACUUUUACCCACUCCACCCUUGCCUGA | 13 ± 4 |  |
| GS3466 (nucleic acid) sense: CACGAAUACGUGUAAUUCCUUCUCUCAUGAUACUUUCUCGUUUCUCACAUUGCUUUUUGAAUUUAGAAAAUGCUAGCGUUUCUAAAUCUUUUUGUUGAGCUUUUAAAUCGUUGAUCAUGGCCAUUUGCUCGUCAAUUUUUACUAAAAAGUCCUUGACAUGCCUAUUUACAUUGAAUACGUUUCUGGUAACCUUGGUUUGAAUAUUUUUUGCUCGAUUUGCAUAACGCAAUGUAUUCUGAGUCUCAUCAAAAUGUGCACUAGACGGACUUACGCAAACAAUCAUUACGGUCUUGCAAUUGCCACCGAGAGAAAACUUUAGCAGUCGAGUUAACUUUGAAUUCCGAUAUGGAACGUGGUUUUUUUUUCGGGGAUCACAAA antisense: UUUGUGAUCCCCGAAAAAAAAACCACGUUCCAUAUCGGAAUUCAAAGUUAACUCGACUGCUAAAGUUUUCUCUCGGUGGCAAUUGCAAGACCGUAAUGAUUGUUUGCGUAAGUCCGUCUAGUGCACAUUUUGAUGAGACUCAGAAUACAUUGCGUUAUGCAAAUCGAGCAAAAAAUAUUCAAACCAAGGUUACCAGAAACGUAUUCAAUGUAAAUAGGCAUGUCAAGGACUUUUUAGUAAAAAUUGACGAGCAAAUGGCCAUGAUCAACGAUUUAAAAGCUCAACAAAAAGAUUUAGAAACGCUAGCAUUUUCUAAAUUCAAAAAGCAAUGUGAGAAACGAGAAAGUAUCAUGAGAGAAGGAAUUACACGUAUUCGUG | 21 ± 7 | 19 ± 11 |
| GS3472 (nucleic acid) sense: UUAUUUGUGGCGACCUACCGAAAAUAAUCGAAGAUUCGCAAUGAGUGAUGAGUUAGCACAGGACGAUGAAGGUUUUGAAAUAUCCGACUUUGGAGUUGAAGACGAUGAAAUAGAGUCUACUAUAGGCCAAAAAGAAGAUAGAGAUCAAAGGCCAGAAGAGACGAGGUACAAUCCUGCGCCGAAAAAUUCCGGACGAAAGACUGUAAAAAAUACAACACGUGAGAGCUUAGAAAGAGAAACGAUAUUUACUGUUGGUGAAGACGGGGACAAAUGGUCAAAUAAUGAUAGUGACGAGGAGCAUGUUAAUCUCGUUAGUGGGUCAAACAAGCCUUCUUAGAUUUACGACAAUUUUUUU antisense: AAAAAAAUUGUCGUAAAUCUAAGAAGGCUUGUUUGACCCACUAACGAGAUUAACAUGCUCCUCGUCACUAUCAUUAUUUGACCAUUUGUCCCCGUCUUCACCAACAGUAAAUAUCGUUUCUCUUUCUAAGCUCUCACGUGUUGUAUUUUUUACAGUCUUUCGUCCGGAAUUUUUCGGCGCAGGAUUGUACCUCGUCUCUUCUGGCCUUUGAUCUCUAUCUUCUUUUUGGCCUAUAGUAGACUCUAUUUCAUCGUCUUCAACUCCAAAGUCGGAUAUUUCAAAACCUUCAUCGUCCUGUGCUAACUCAUCACUCAUUGCGAAUCUUCGAUUAUUUUCGGUAGGUCGCCACAAAUAA | 28 ± 5 | 22 ± 6 |
